# Publication PMC4866688, “Trypanosoma brucei DHFR-TS Revisited: Characterisation of a Bifunctional and Highly Unstable Recombinant Dihydrofolate Reductase-Thymidylate Synthase” (PLoS Neglected Tropical Diseases, 2016)
# Target: the molecule itself
# Test: SEC; Superdex 200 column, Bio-Rad gel filtration standards; purified cleaved enzyme, DHFR activity and absorbance at 280 nm followed
protein,measurement,value
"Trypanosoma brucei dihydrofolate reductase-thymidylate synthase, Tsf tag removed with TEV protease (enzyme, UniProt Q27783 1-527, looked up, bifunctional dihydrofolate reductase-thymidylate synthase of Trypanosoma brucei strain 427; N-terminal DHFR domain (ends at Arg 239), linker, C-terminal TS domain; also called TbDHFR-TS; cleaved TbDHFR-TS; not shown: Tsf (E. coli elongation factor Ts), N-terminal, cleaved; His6, internal (between Tsf and the TEV site), cleaved) MLSLTRILRKKIPVHELAGKISRPPLRPFSVVVASDEKGGIGDGGTIPWEIPEDMQYFRRVTTNLRGKNVKPSPSKRNAVVMGRKTWDSLPPKFRPLSNRLNVVLSRSATKEQLLAGIPDPIKRAEAANDVVAVNGGLEDALRMLVSKEHTSSIETVFCIGGGTIYKQALCAPCVNVLQAIHRTVVRPASNSCSVFFDIPAAGTKTPEGLELVRESITDERVSTGAGGKKYQFEKLVPRNSEEEQYLNLVGRIIDEGCTKCDRTGVGTRSLFGAQMRFSLRNNRLPLLTTKRVFWRGVCEELLWFLRGETNAKLLSDKGIHIWDGNGSRAFLDSRGLTDYDEMDLGPVYGFQWRHFGADYISCKVDSEGKGVDQIANIVKSLIENPDDRRMICTAWNPAALPRMALPPCHMMAQFYVSNGELSCMLYQRSCDMGLGVPFNIASYALLTFLMAKASGLRPGELVHTLGDAHVYSNHVEPCRKQLKRVPRPFPFIVFKQDKEFLEDFQESDIEVIDYSPYPVISMEMAV",stoichiometry N,2
